The values below come from patent publication US20050232917 (published 2005).

Numbering of substitutions follows the chain as printed.

First the molecules themselves.
B1: 6.14.2 (antibody, V domains shown)
VH: EVQLLESGGGLVQPGGSLRLSCAASGLTFNNSAMTWVRQAPGKGLEWVSTTSGSGGTTYYADSVKGRFTISRDSPKNTLYLQMNSLRAEDTAVYYCAARGYSYGTTPYEYWGQGTLVTVSS
VL: MDMRVPAQLLGLLLLWLRGARCDIQMTQSPSSLSASVGDRVTITCRASRSISSYLNWYQQKPGKAPKVLIFFVSSLQSGVPSRFSGSGSGTDFTLTISSLQPEDFATYYCQQNYIPPITFGQGTRLEIRR
B2: 9.8.2 (antibody, V domains shown)
VH: QVQLVESGGGVVQPGRSLRLSCAASGFTFSSYGMHWVRQAPGKGLEWVAVIWYDGSNEYYADSVKGRFTISRDNSKNTLYLQMNSLRAEDTAVYYCARGAYHFAYWGQGTLVTVSS
VL: DMRVPAQLLGLLLLWLSVAGARCDIQMTQSPSSLSASVGDRVTITCQASQDISNYLNWYQQKPGKAPKLLIYDASNLETGVPSRFSGSGSGTDFTFTISSLQPEDIATYSCQHSDNLSITFGQGTRLEIKR
B3: 6.34.2 (antibody, V domains shown)
VH: QVQLVESGGGVVQPGRSLRLSCAASGFTFSSYGMHWVRQAPGKGLEWVAVISNDGNNKYYADSVKGRFTISRDNSKNTLYLQMNSLSAEDTAVYYCARDSTAITYYYYGMDVWGQGTTVTVSS
VL: MDMRVPAQLLGLLLLWLRGARCDIQMTQSPSSLSASVGDRVTITCRASQNISSYLNWFQQKPGKAPKLLIYAASGLKRGVPSRFSGSGSGTDFTLTIRTLQPDDFATYSCHQSYSLPFTFGPGTKVDIKR
B4: 7.16.6 (antibody, V domains shown)
VH: QVQLVQSGAEVKKPGASVKVSCKASGYTFTSYGINWVRQAPGQGLEWMGWISVYSGNTNYAQKVQGRVTMTADTSTSTAYMDLRSLRSDDTAVYYCAREGSSSSGDYYYGMDVWGQGTTVTVSS
VL: DIVMTQTPLSLSVTPGQPASISCKSSQSLLHTDGTTYLYWYLQKPGQPPQLLIYEVSNRFSGVPDRFSGSGSGTDFTLKISRVEAEDVGIYYCMQNIQLPWTFGQGTKVEIKR
B5: 1.8.2 (antibody, V domains shown)
VH: EVQLVESGGGLVKPGGSLRLSCVVSGFTFTNAWMIWVRQAPGKGLEWVGRIKRKTDGGTTDYAAPVKGRFTISRDDSKNTLYLQMNSLKTEDTAVYYCTTGGVAEDYWGQGTLVTVSS
VL: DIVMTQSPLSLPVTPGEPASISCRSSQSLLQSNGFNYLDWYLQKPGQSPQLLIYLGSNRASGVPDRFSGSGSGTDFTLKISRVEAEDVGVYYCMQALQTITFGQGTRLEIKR
B6: 1.7.2 (antibody, V domains shown)
VH: B5 VH with V24A
VL: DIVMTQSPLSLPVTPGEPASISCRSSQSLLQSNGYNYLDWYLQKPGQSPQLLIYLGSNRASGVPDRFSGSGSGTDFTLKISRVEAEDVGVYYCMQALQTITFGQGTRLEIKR
B7: 6.73.2 (antibody, V domains shown)
VH: EVQLLESGGDLVQPGGSLRLSCAASGFTFRSYAMNWVRQAPGKGLEWVSVISGRGGTTYYADSVKGRFTISRDNSKNTLYLQMNSLRAEDAAVYYCAKIAVAGEGLYYYYGMDVWGQGTTVTVSS
VL: MDMRVPAQLLGLLLLWLRGARCDIQMTQSPSSLSASVGDRVTFTCRASQNITNYLNWYQQKPGKAPKLLIYAASSLPRGVPSRFRGSGSGTDFTLTISSLQPEDFATYYCQQSYSNPPECGFGQGTTLDIKR
B8: 7.20.5 (antibody, V domains shown)
VH: QVQLQESGPGLVKPSETLSLTCTVSGSSISSYHWNWIRQPAGKGLEWIGRIYTSGSTNYNPSLKSRVTMSLDTSKNQFSLKLSSVTAADTAVYYCAREGVRYYYASGSYYYGLDVWGQGTTVTVSS
VL: not shown
B9: 6.67.1 (antibody, V domains shown)
VH: QVQLQESGPGLVKPSETLSLTCTVSGDSISSNYWSWIRQPAGKGLEWIGRIYTSGGTNSNPSLRGRVTILADTSKNQFSLKLSSVTAADTAVYYCARDRITIIRGLIPSFFDYWGQGTLVTVSS
VL: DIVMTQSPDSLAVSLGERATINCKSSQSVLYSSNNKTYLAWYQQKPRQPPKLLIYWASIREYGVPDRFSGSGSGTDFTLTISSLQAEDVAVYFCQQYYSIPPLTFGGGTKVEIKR
B10: 7.26.4 (antibody, V domains shown)
VH: B4 VH with K23E, N35D, V64L, T71S, A72T, D82E
VL: B4 VL with S26N, H31Y, T32S, T35K, Y39F, I90V, N96S
B11: 6.77.1 (antibody, V domains shown)
VH: EVQLVESGGGLVKPGGSLRLSCAASGFTFSSYSMNWVRQAPGKGLEWVSSISSSSSYIYYADSVKGRFTISRDNAKNSLYLQMNSLRAEDTAVYYCARDGYSSGWSYYYYYGMDVWGQGTTVTVSS
VL: DIVMTQTPLSLSVTPGQPASISCNSSQSLLLSDGKTYLNWYLQKPGQPPQLLIYEVSNRFSGVPDRFSGSGSGTDFTLKISRVEAEDVGVYSCMQSIQLMCSFGQGTKLEIKR
B12: 6.22.2 (antibody, V domains shown)
VH: QVQLVESGGGVVQPGRSLRLSCAASGHTFSSDGMHWVRQAPGKGLEWVAIIWYDGSNKYYADSVKGRFTISRDNSKNTLYLQMNSLRAEDTAVYYCARDPGYYYGMDVWGQGTTVTVSS
VL: EIVLTQSPDFQSVTPKEKVTITCRASQRIGSSLHWYQQKPDQSPKLLIKYASQSFSGVPSRFSGSGSGTNFTLTINGLEAEDAATYYCHQSGRLPLTFGGGTKVEIKR
B13: 6.34.2-mod (antibody, V domains shown)
VH: B3 VH with S87R
VL: B3 VL with N50S, F58Y, R98S, T99S, D103E, S109Y

One test addresses MAdCAM-IgG1 Fc fusion (human). The test is described as follows: SPR, protocol 2.
Take B1: the Kd (in general, the equilibrium constant for the complex coming apart) was less than 0.01 nM.
Molecule B2 returned a Kd of 0.0325 nM.
With B3, the Kd was less than 0.015 nM.
Consider B4, for which the affinity, expressed as Kd, was 0.0048 nM.

The target of the next test is T1, human MAdCAM (on CHO cells) (human, UniProt Q13477).
T1 chain: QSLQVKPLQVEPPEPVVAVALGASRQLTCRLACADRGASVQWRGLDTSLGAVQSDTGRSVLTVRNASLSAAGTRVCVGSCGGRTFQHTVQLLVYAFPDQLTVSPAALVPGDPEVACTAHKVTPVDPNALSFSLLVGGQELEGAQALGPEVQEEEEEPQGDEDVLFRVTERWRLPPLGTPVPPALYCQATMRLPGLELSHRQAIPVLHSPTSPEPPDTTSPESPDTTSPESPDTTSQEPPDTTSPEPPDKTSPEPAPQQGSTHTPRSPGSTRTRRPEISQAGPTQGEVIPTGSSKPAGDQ
The test is described as follows: competition, JY cell adhesion to CHO.
Regarding B1, the IC50 (commonly the point on the concentration scale where inhibition reaches its midpoint) was 0.291 µg/mL.
On the same count and under the same terms, as for B2, the figure is 0.44 µg/mL; as for B5, 0.424 µg/mL.
B6 registered an IC50 of 0.502 µg/mL.
The molecule B3 registered an IC50 of 0.285 µg/mL.
On the same count and under the same terms, the same measure for B7: 0.369 µg/mL; for B8: 0.387 µg/mL.
The same measure, in the same setting: as for B9, the figure is 0.298 µg/mL.
Still for that read-out and setting: as for B10, the figure is 0.574 µg/mL; as for B11, 0.52 µg/mL.
Take B12: the IC50 was 0.573 µg/mL.

For the next test, the target named is T2, cynomolgus/human MAdCAM chimera (on CHO cells) (cynomolgus/human).
T2 chain: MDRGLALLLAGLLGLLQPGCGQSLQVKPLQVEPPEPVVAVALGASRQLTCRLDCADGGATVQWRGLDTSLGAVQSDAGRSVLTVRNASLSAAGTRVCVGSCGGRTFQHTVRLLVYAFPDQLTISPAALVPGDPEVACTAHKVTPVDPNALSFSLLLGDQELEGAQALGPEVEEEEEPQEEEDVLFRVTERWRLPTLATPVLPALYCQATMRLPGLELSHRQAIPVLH
The experiment in a line: FACS. On the technique in general: A flow cytometer gives signals particle by particle.
For the molecule B7, the binding result was “no binding”.

For the next test, the target named is T3, mouse MAdCAM (mouse, UniProt Q61826).
T3 chain: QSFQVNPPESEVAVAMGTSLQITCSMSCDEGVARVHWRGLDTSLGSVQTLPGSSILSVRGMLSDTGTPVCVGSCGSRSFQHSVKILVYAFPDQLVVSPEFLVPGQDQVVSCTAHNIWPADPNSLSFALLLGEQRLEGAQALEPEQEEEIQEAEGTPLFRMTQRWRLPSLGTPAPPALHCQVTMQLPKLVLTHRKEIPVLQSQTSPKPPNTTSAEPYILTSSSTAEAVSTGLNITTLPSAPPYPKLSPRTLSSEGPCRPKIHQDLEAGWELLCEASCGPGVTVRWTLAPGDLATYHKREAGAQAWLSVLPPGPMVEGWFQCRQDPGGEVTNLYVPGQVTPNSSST
The experiment in a line: ELISA. A general note: In an ELISA, binding on a coated surface is turned into a signal by an enzyme label.
Turning to B1, the binding result is recorded as “no binding”.
On the same count and under the same terms, the same measure for B2: “no binding”; for B3: “no binding”; for B7: “no binding”.

The next test has as its target MAdCAM-IgG1 Fc fusion (human). The experiment in a line: competition, JY cell adhesion.
B3 gave an IC50 of 0.013 µg/mL.
Same read-out and setting: as for B13, the figure is 0.049 µg/mL.

For the next test, the target named is MAdCAM-IgG1 Fc fusion (human). The test is described as follows: SPR, protocol 1.
Sequence of MAdCAM-IgG1 Fc fusion (human) (chain, as listed by the source): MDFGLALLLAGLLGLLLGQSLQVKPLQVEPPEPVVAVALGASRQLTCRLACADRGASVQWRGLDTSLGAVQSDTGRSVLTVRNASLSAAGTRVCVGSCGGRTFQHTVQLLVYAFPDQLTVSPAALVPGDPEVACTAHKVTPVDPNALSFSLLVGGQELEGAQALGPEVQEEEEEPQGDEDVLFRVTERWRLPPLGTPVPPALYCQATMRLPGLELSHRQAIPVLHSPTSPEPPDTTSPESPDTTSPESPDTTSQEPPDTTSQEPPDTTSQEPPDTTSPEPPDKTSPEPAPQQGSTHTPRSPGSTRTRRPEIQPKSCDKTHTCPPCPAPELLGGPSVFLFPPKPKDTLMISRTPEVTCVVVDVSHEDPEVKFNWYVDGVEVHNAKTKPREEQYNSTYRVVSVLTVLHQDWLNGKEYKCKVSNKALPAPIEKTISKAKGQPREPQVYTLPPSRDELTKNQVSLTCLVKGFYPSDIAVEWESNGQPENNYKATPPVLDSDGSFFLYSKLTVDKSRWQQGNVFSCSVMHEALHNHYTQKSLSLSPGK
Molecule B1 showed a Kd of 0.0077 nM.
Still for that read-out and setting: as for B2, the figure is 0.1 nM.
Still for that read-out and setting: the same measure for B5: 0.035 nM; for B6: 0.042 nM; for B3: 0.0158 nM.
B7: the Kd came to 0.093 nM.
On the same count and under the same terms, as for B4, the figure is 0.0015 nM.
B11 showed a Kd of 0.0067 nM.

A further test deals with T2, cynomolgus/human MAdCAM chimera (on CHO …). The test is described as follows: competition, JY cell adhesion to CHO.
In turn, B1 yielded an IC50 of 0.53 µg/mL.
For B2, the IC50 was found to be 0.83 µg/mL.
Still for that read-out and setting: as for B3, the figure is 0.47 µg/mL; as for B8, 0.62 µg/mL; as for B9, 0.75 µg/mL.
On the same count and under the same terms, the same measure for B10: 0.96 µg/mL; for B4: 0.72 µg/mL.
The molecule B11 returned a half-maximal inhibitory concentration (IC50) of 0.64 µg/mL.
On the same count and under the same terms, as for B12, the figure is 0.83 µg/mL.

A further test has as its target MAdCAM-IgG1 Fc fusion (human). The test is described as follows: competition, JY cell adhesion. The source holds these as a separate data set.
Molecule B1 returned an IC50 of 0.011 µg/mL.
On the same count and under the same terms, the same measure for B2: 0.02 µg/mL.
As for B5, the IC50 turned out to be 0.027 µg/mL.
For B6, the IC50 stood at 0.03 µg/mL.
Still for that read-out and setting: as for B3, the figure is 0.013 µg/mL; as for B7, 0.02 µg/mL.
Turning to B4, the IC50 was 0.019 µg/mL.
